Measured values reported in patent US12083165B2, “Thymosin alpha 1 for use in treatment of cystic fibrosis” (SciClone Pharmaceuticals International (SG) PTE. LTD., priority 2015, dated 2024).

Columns and labels:
ΔF508 CFTR [1] = molecular target: T1, ΔF508 CFTR (Homo sapiens, UniProt P13569, DEL508-508); test: CFTR immunoblot (mature C / immature B band) in CFBE41o− cells stably expressing ΔF508 CFTR; type: cell-based
Experimental: Cells. Cell Lines and Cell Culture—Human bronchial epithelial (HBE) cells, homozygous for the […] mutation and its isogenic wild-type were obtained from lung transplants (CF patients) or lung resections (non-CF patients) (kindly provided by L J Galietta within the Italian Cystic Fibrosis Foundation). Cells were maintained at 37° C. in a humidified incubator in an atmosphere containing 5% CO2, and the experiments were done 5 days after plating (21, 22). Stable lentiviral-based transduction of the parental CFBE41o− cells (ΔF508/ΔF508), originally immortalized and characterized by Dr. D. Gruenert and co-workers (32) with either WT-CFTR or ΔF508-CFTR, was performed by Tranzyme, Inc. (Birmingham, AL). The transduced CFBE41o− cells were maintained in minimum Eagle's medium supplemented with 50 units/ml penicillin, 50 μg/ml streptomycin, 2 mM L-glutamine, 10% fetal bovine serum, and 1 μg/ml blasticidine (WT-CFTR) or 2 μg/ml puromycin (ΔF508-CFTR) in a 5% CO2, 95% air incubator at 37° C. The parental CFBE41o− cells were maintained under the same culture conditions but without blasticidine or puromycin. To establish polarized monolayers, CFBE41o− cells were seeded on 24-mm-diameter Transwell permeable supports ([…] pore size; Corning Corp., Corning, NY) at 2×10^6 and grown in air-liquid interface culture at 37° C. for 6-9 days and then at 27° C. for 36 hours. Cells were incubated with Tα1 100 ng/ml (CRIBI Biotechnology, Padova, see below), 3 μM VX-809 (Lumacaftor, Aurogene Rome, Italy), 1 μM VX-770 (Ivacaftor, Aurogene) alone or in combination for 24 hours before the assessment of CFTR protein expression and function. DMSO vehicle alone (0.1%, v/v) for 24 h was used as a control.
CFTR Immunoblot Analysis. Immunoblot techniques using the anti-CFTR antibody (clone CF3, Abcam) were used to measure CFTR maturation in FRT, HEK-293, or HBE cells expressing CFTR or F508del-CFTR (34). After incubation, cells were harvested in ice-cold D-PBS solution (without calcium and magnesium) and pelleted at 1,000×g at 4° C. Cell pellets were lysed in 1% Nonidet P-40, 0.5% sodium deoxycholate, 200 mM NaCl, 10 mM Tris, pH 7.8, and 1 mM EDTA plus protease inhibitor mixture (1:250; Roche) for 30 min on ice. Lysates were spun for 10 min at 10,000×g at 4° C. to pellet nuclei and insoluble material. […] LiteAblotPlus chemiluminescence substrate (Euroclone S.p.A.), using ChemiDoc™ XRS+ Imagig system (Bio-Rad Laboratories) and blot quantification was obtained by densitometry image analysis using Image Lab 3.1.1 software (Bio-Rad).
The SV40 transformed CF airway epithelial cell line (CFBE41o−), homozygous for the ΔF508-CFTR mutation, was used (32). […] CFTR bands were quantified by densitometry and expressed as the C/B ratio. […]

ΔF508 CFTR [2] = molecular target: T1, ΔF508 CFTR; test: Chloride permeability by SPQ fluorescence assay upon forskolin stimulation, CFBE41o− cells; type: cell-based
Experimental: Cells. Cell Lines and Cell Culture—Human bronchial epithelial (HBE) cells, homozygous for the […] mutation and its isogenic wild-type were obtained from lung transplants (CF patients) or lung resections (non-CF patients) (kindly provided by L J Galietta within the Italian Cystic Fibrosis Foundation). Cells were maintained at 37° C. in a humidified incubator in an atmosphere containing 5% CO2, and the experiments were done 5 days after plating (21, 22). Stable lentiviral-based transduction of the parental CFBE41o− cells (ΔF508/ΔF508), originally immortalized and characterized by Dr. D. Gruenert and co-workers (32) with either WT-CFTR or ΔF508-CFTR, was performed by Tranzyme, Inc. (Birmingham, AL). […]
The activity of Tα1, either alone or in combination with ivacaftor, has been comparatively assessed with that of lumacaftor on CFBE41o− cells expressing ΔF508 CFTR and on HBE cells from CF patients. To this purpose, cells were treated with Tα1 (100 ng/ml), VX-770 (1 μM) or VX-809 (3 μM) alone or in combination for 24 hours and assessed for CFTR protein expression and function. […] In terms of ion channel activity, Tα1, either alone or in combination with ivacaftor, increased the chloride permeability of ΔF508 CFTR cells between 60 to 70% relative to control (considering WT control as 100% reference value)(B, assessed by a fluorescence assay upon stimulation with fosforkolin, Fsk). […]

TMEM16A = test: DNA microarray analysis of mice with pulmonary aspergillosis; type: in vivo; conditions: unpublished results

T1 sequence (P13569 with tags, fused parts or gaps DEL508-508): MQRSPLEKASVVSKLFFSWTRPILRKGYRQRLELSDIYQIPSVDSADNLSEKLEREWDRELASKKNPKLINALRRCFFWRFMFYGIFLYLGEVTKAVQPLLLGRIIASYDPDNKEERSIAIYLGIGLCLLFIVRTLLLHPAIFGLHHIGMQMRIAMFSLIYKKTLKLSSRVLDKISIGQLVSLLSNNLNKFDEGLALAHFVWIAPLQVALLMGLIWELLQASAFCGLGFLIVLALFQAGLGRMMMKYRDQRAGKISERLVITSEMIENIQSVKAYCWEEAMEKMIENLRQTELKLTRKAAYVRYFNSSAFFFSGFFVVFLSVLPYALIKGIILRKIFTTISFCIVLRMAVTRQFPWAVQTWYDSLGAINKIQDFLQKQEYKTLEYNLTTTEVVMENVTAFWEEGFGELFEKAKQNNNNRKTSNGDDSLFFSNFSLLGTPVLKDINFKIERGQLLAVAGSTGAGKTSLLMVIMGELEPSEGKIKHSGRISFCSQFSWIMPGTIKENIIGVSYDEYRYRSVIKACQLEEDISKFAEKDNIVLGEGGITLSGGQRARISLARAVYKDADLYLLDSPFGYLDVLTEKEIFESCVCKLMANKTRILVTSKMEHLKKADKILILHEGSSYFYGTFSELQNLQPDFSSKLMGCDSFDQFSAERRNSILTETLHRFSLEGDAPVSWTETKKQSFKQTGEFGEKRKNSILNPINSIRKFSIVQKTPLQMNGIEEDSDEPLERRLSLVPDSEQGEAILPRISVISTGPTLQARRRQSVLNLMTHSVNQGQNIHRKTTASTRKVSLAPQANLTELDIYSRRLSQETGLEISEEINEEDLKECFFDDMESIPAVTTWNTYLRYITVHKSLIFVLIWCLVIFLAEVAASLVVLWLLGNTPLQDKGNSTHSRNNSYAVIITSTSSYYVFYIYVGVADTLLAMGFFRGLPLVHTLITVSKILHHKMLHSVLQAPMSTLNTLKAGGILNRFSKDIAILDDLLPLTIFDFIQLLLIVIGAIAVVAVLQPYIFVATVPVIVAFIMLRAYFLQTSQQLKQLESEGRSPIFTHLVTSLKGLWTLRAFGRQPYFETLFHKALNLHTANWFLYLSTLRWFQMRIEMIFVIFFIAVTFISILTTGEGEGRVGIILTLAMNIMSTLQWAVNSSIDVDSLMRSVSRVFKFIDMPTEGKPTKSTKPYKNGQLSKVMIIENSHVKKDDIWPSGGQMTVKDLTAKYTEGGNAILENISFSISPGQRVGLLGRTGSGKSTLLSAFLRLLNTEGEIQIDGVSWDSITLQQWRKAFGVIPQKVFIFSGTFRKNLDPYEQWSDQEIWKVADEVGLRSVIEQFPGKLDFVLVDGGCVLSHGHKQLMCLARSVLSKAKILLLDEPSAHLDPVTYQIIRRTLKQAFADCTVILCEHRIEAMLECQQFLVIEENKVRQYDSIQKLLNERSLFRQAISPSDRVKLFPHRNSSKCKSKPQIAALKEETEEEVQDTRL

Substance: Ac-Ser-Asp-Ala-Ala-Val-Asp-Thr-Ser-Ser-Glu-Ile-Thr-Thr-Lys-Asp-Leu-Lys-Glu-Lys-Lys-Glu-Val-Val-Glu-Glu-Ala-Glu-Asn-O (Ac-SDAAVDTSSEITTKDLKEKKEVVEEAEN-OH; not fully specified; printed as Ac-Ser-Asp-Ala-Ala-Val-Asp-Thr-Ser-Ser-Glu-Ile-Thr-Thr-Lys-Asp-Leu-Lys-Glu-Lys-Lys-Glu-Val-Val-Glu-Glu-Ala-Glu-Asn-O; listed as Homo sapiens) [Tα1, naturally occurring polypeptide of 28 amino acid; supplied as purified sterile, lyophilized, acetylated polypeptide]
- cellular expression of ΔF508 mature CFTR (band C, C/B ratio) (ΔF508 CFTR [1]; 100 ng/ml Tα1, from 30 mins until 24 hours, CFBE41o− cells expressing ΔF508 CFTR): persistently increased
- expression of the mature form (C) relative to the immature form (B) of CFTR (ΔF508 CFTR [1]; ΔF508-transfected cells, 24 hours, Tα1 100 ng/ml, VX-770 1 μM, VX-809 3 μM alone or in combination): increased
- chloride permeability of ΔF508 CFTR cells relative to control (WT control as 100%) (ΔF508 CFTR [2]; 100 ng/ml Tα1 for 24 hours, CFBE41o− cells, forskolin stimulation): approximately 70%
- ion channel activity compared to lumacaftor (ΔF508 CFTR [2]; CFBE41o− cells expressing ΔF508 CFTR, 24 hours): lower
- expression of TMEM16A in mice with pulmonary aspergillosis (TMEM16A): greatly increased
